Experimental data: the DeepSol protein solubility set

assay: soluble on expression in E. coli; label from the status in PepcDB or PDB records

Question: With “MGHHHHHHGGHMSLTISLAKGQKVDLTKTNPGLSKVVVGLGWDTNKYDGGHDFDLDSSVFLLDAAGKCASPNDFIFYNQLEGGNGSVVHSGDNLTGAGEGDDENVKVNLSAVPANIDKISFVITIHDAEARSQNFGQVSNAFVRIVNEETNEELIRYDLAEDFSIETAIIAGELYRHNGEWKFSAIGSGYQGGLARIATDYGLQVGEGGS” as the sequence, how does the “soluble on expression in E. coli” value read?
Answer: soluble

Question: Which “soluble on expression in E. coli” value does the source give for “MGHHHHHHGGHMSLTSALPRPAPSPYARRKTALVIGAGFGGLALGIRLQSLGFDTTILERLDGPGGRAYQKRTPDGYVFDMGPTVLTVPHFIEELFALERDRAGLDAPDYPPEVLSGERVKEGVSGGPHTSRYVTLVPILPFYRIVFHDGTYFDYDGDPESTRRQIAELAPGDLAGYERFHADAEAIFRRGFLELGYTHFGDVPTMLRVVPDLLKLDAVRTLFSFTSKYFQSDKLRQVFSFETLLVGGNPLSVPAIYAMIHFVEKTWGIHYAMGGTGALVRGLVQKFEELGGAIRYGAGVDEVLVDGNLPGKRTARGVRLESGEELRADLVASNGDWANTYLKRVRPSARLVNSDLRVKAASESMSLLVVYFGFRGGDDLPLKHHNILLGPRYEALLSEIFGTKRLGEDFSQYLHVPTLTDPALAPAGHHAAYTLVPVPHNGSGIDWDVEGPKLAEAALADIERRGLIPGLRERLTHFEFITPDYFAGTLDSYLGNAFGPEPRLVQSAFFRPHNRSEDLHNFYLVGAGAQPGAGTPSVMMSAKMTARLIAEDFGIHADIREGGS” here?
Answer: soluble

Question: With “MGHHHHHHGSTTQRNAQIAMGRKKFNMDPKKGIQFLIENDLLQSSPEDVAQFLYKGEGLNKTVIGDYLGERDDFNIKVLQAFVELHEFADLNLVQALRQFLWSFRLPGEAQKIDRMMEAFASRYCLCNPGVFQSTDTCYVLSFAIIMLNTSLHNHNVRDKPTAERFITMNRGINEGGDLPEELLRNLYESIKNEPFKIPEDDGNDLTHTFFNPDREGWLLKLGGRVKTWKRRWFILTDNCLYYFEYTTDKEPRGIIPLENLSIREVEDPRKPNCFELYNPSHKGQVIKACKTEADGRVVEGNHVVYRISAPSPEEKEEWMKSIKASISRDPFYDMLATRKRRIANKK” as the sequence, how does the “soluble on expression in E. coli” value read?
Answer: soluble

Question: Which “soluble on expression in E. coli” value does the source give for “MGHHHHHHSAISVWRAVDYVRMPWKNGGGSTEEITRDAGTGLEGFGWRLSIADIGESGGFSSFAGYQRVITVIQGAGMVLTVDGEEQRGLLPLQPFAFRGDSQVSCRLITGPIRDFNLIYSPERYHARLQWVDGVQRFFSTAQTVLVFSVADEVKVLGEKLGHHDCLQVDGNAGLLDISVTGRCCLIELTQRG” here?
Answer: soluble

Question: For “MGHHHHHHSHATGNVCIEEIDVDGKFIRLKNTSEQDQPMGGWEMIRKIGDTSVSYKYTSRYVLKAGQTVTIWAANAGVTASPPTDLIWKNQNSWGTGEDVKVILKNSQGEEVAQRSTVFKT”, which “soluble on expression in E. coli” value is on record?
Answer: not soluble

Question: With “MGHHHHHHSHGDAAPEALEFEYDLAEPPEKVWRALTVPELLAAWMMPNDIRPEIGNRFAFAGTEAAIECEILDAEPERLLRYSWRQQPGDAARQDPLDSVVTFTLARTVSGGTHLRIVHDGFGGKAMPAVAMASG” as the sequence, how does the “soluble on expression in E. coli” value read?
Answer: not soluble

Question: For “MGHHHHHHSHGLPLWVSERILQQINQLTHYEPVIGIMGKTGAGKSSLCNALFAGEVSPVSDVAACTRDPLRFRLQIGEHFMTIVDLPGVGESGVRDTEYAALYREQLPRLDLILWLIKADDRALATDEHFYRQVIGEAYRHKMLFVISQS”, which “soluble on expression in E. coli” value is on record?
Answer: not soluble

Question: Which “soluble on expression in E. coli” value does the source give for “MGHHHHHHSHMAAEPVEDNCINFVAMKFIDNTLYFIAEDDENLESDYFGKLESKLSVIRNLNNQVLFIDQGNRPLFEDMTDSDCRDNAPRTIFIISMYKDSQPRGMAVTISVKCEKISTLSCENKIISFKEVNPPDNIKDTKSDIIFFQRSVPGHDNKMQFESSSYEGYFLTCEKERDLFKLILKKEDELGDRSIMFTVQNED” here?
Answer: soluble

Question: For “MGHHHHHHSHMAGGGAGDPGLGAAAAPAPETREHLFKVLVIGELGVGKTSIIKRYVHQLFSQHYRATIGVDFALKVLNWDSRTLVRLQLWDIAGQERFGNMTRVYYKEAVGAFVVFDISRSSTFEAVLKWKSDLDSKVHLPNGSPIPAVLLANKCDQNKDSSQSPSQVDQFCKEHGFAGWFETSAKDNINIEEAARFLVEKILVNHQSFPNEENDVDKIKLDQETLRAENKSQCC”, which “soluble on expression in E. coli” value is on record?
Answer: soluble

Question: For “MGHHHHHHSHMANSAGSMANSAGSMAKTIKDIKAMVEQAAIQSIHKSSSNVKQIMVKTGQEHIVEDVYGAYDPLLYERTGQVKDAFITTNESNGVSLDNIREDDGKDIATVIETGQGYTYPDSYGYGYGNPRPFMKNTSETLRDGRLTAALKKDLKADGIKTD”, which “soluble on expression in E. coli” value is on record?
Answer: not soluble

Question: For “MGHHHHHHSHMANSAGSMANSAGSMFDGISLTEHQRQQMRDLMQQARHEQPPVNVSELETMHRLVTAENFDENAVRAQAEKMANEQIARQVEMAKVRNQMYRLLTPEQQAVLNEKHQQRMEQLRDVTQWQKSSSLKLLSSSNSRSQ”, which “soluble on expression in E. coli” value is on record?
Answer: not soluble

Question: With “MGHHHHHHSHMANSAGSMANSAGSMFKLYSLAREFARDLLFEINGDVVTLSIKGVLLANTSSTSSNFSIFEVSENEFILAIQTSGYVVYLGIEAEEEIEEEVYPSLVRIIISEVMPIINNLVQVAKELSYKGADILLDDNMSSSLREAMYNLLLKHKKGKSPYEQVEVA” as the sequence, how does the “soluble on expression in E. coli” value read?
Answer: not soluble

Question: For “MGHHHHHHSHMDLSYALETVLNKQFPSSPQDVLGELQFAFVCFLLGNVYEAFEHWKRLLNLLCRSEAAMMKHHTLYINLISILYHQLGEIPADFFVDIVSQDNFLTSTLQVFFSSACSIAVDATLRKKAEKFQAHLTKKFRWDFAAEPEDCAPVVVELPEGIEMG”, which “soluble on expression in E. coli” value is on record?
Answer: not soluble

Question: With “MGHHHHHHSHMEDLLDLDEELRYSLATSRAKMGRRAQQESAQAENHLNGKNSSLTLTGETSSAKLPRCRQGGWAGDSVKASNGTQTGKQQLDLNACYHKTHHRNLGLASLEEADIPIIPDLEEVQEEDFVLQVAAPPSIQIKRVMTYRDLDNDLMKYSAIQTLDGEIDLKLLTKVLAPEHEVREDDVGWDWDHLFTEVSSEVLTEWDPLQTEKEDPAGQARHT” as the sequence, how does the “soluble on expression in E. coli” value read?
Answer: soluble

Question: Which “soluble on expression in E. coli” value does the source give for “MGHHHHHHSHMEEKFEDRSPAAECLSEKETEELMAWMRNVLGSRVTNVKVTLRLDTHPAMVTVLEMGAARHFLRMQQLAKTQEERAQLLQPTLEINPRHALIKKLNQLRASEPGLAQLLVDQIYENAMIAAGLVDDPRAMVGRLNELLVKALERH” here?
Answer: soluble

Question: Which “soluble on expression in E. coli” value does the source give for “MGHHHHHHSHMEKSAPSIILNHWCVTWQGHHFLCRNLSNIKILNRRNGYTTLDLPLTLGDLTQYRLAHGLSENLMALSPYSWTIPFLVSSSETPGIELLPKVINDFGTPLSLAIKTNLPSIPAHQLLFYIIFLRPSPLTSMSCYARPLSLASTPSTNGLCQSVSVLDNKPGLLITTPLHRDPASGKYTSNVQSPTTFNLFRVLYIKLSGEEGMVSQKVKHLTIDKDSLQEGFLQLCLNMCGVSYETLQCEILLELVQGPTNFIFPAAFPPPVSLPHRNCIELTCDTERCLKPGDVMKLKHRLLYELGQRGDTPQNAFLIVGAHSPETVWISPSLWLPGQPLYINIINLSHKPLLLSRHSILALAIPISYTRAPASAHEATDTTICYSGNSRVLTCGAAHVLEAHFKHPPITSRAITDGGESPMEWQTL” here?
Answer: not soluble

Question: For “MGHHHHHHSHMEMASADSDEDPRHKVGKTPHLTLPADLQTLHLNRPTLSPESKLEWNNDIPEVNHLNSEHWRKTEKWTGHEETNHLETDFSGDGMTELELGPSPRLQPIRRHPKELPQYGGPGKDIFEDQLYLPVHSDGISVHQMFTMATAEHRSNSSIAGKMLTKVEKNHEKEKSQHLEGSASSSLSSD”, which “soluble on expression in E. coli” value is on record?
Answer: not soluble

Question: Which “soluble on expression in E. coli” value does the source give for “MGHHHHHHSHMESLVVGDIAELRPNQGTLSLFTNEAGGILDDLIVTNTSEGHLYVVSNAGCWEKDLALMQDKVRELQNQGRDVGLEVLDNALLALQGPTAAQVLQAGVADDLRKLPFMTSAVMEVFGVSGCRVTRCGYTGEDGVEISVPVAGAVHLATAILKNPEVKLAGLAARDSLRLEAGLCLYGNDIDEHTTPVEGSLSWTLGKRRRAAMDFPGAKVIVPQLKGRVQRRRVGLMCEGAPMRAHSPILNMEGTKIGTVTSGCPSPSLKKNVAMGYVPCEYSRPGTMLLVELPSGPCF” here?
Answer: not soluble

Question: With “MGHHHHHHSHMFTMLCINGTTPRPLPVPSPFGCMIFFFFKNPWKQCLLQGWLGARPIHLLGYLPLSLLWCPFPLPCARCSVVYISSPRHGAHAPRDMILSLVLAHGALYKELGGRGRKWEPS” as the sequence, how does the “soluble on expression in E. coli” value read?
Answer: not soluble
